# Laboratory results published in IntAct's records for PubMed 18084303.
# Biological target: Nlgn1, Q99K10-1
# Sequence (Q99K10 whole entry): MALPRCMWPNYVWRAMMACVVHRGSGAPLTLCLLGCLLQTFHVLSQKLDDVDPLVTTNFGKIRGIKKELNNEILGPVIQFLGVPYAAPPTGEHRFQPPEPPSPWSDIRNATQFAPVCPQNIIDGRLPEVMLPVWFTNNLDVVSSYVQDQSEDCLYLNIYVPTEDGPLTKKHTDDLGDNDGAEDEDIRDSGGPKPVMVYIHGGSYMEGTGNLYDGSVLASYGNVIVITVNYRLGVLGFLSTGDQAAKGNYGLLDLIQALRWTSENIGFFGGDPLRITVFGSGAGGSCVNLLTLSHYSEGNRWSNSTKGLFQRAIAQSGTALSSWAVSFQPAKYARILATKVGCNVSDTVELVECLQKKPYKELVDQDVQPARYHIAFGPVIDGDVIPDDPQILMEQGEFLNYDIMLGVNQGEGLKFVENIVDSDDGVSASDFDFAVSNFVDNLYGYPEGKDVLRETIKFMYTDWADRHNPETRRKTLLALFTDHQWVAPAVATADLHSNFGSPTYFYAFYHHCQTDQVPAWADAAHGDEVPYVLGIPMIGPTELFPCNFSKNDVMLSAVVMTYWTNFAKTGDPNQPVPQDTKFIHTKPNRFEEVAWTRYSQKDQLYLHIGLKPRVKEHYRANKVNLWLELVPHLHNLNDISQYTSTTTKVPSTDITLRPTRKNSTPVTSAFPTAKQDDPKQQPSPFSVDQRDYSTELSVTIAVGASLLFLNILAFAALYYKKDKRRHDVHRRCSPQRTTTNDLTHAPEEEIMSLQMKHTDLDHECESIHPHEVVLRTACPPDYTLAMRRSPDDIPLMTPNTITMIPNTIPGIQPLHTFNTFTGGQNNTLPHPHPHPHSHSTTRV
# Sequence of Neurexin-1-beta (Homo sapiens), P58400-1 D141S (P58400 other isoform, or with tags, fused parts or gaps D141S): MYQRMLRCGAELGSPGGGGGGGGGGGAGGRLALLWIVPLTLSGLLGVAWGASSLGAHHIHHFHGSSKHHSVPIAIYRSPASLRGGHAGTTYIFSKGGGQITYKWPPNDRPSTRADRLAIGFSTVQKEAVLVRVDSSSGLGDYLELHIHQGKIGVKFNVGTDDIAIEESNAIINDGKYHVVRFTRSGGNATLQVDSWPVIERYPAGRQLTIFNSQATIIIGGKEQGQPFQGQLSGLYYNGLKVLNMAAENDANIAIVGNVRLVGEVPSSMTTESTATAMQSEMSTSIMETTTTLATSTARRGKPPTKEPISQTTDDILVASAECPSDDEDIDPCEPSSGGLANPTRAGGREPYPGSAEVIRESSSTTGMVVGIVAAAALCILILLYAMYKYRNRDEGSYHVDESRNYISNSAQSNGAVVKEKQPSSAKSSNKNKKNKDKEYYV
# Sequence of Neurexin-1-beta (Homo sapiens), P58400-1 S111R (P58400 other isoform, or with tags, fused parts or gaps S111R): as the sequence (P58400 other isoform, or with tags, fused parts or gaps D141S) above
# Sequence of Neurexin-1-beta (Homo sapiens), P58400-1 L240R (P58400 other isoform, or with tags, fused parts or gaps L240R): as the sequence (P58400 other isoform, or with tags, fused parts or gaps D141S) above
# Sequence of Neurexin-1-beta (Homo sapiens), P58400-1 L139R (P58400 other isoform, or with tags, fused parts or gaps L139R): as the sequence (P58400 other isoform, or with tags, fused parts or gaps D141S) above
row,effect of a mutation on the interaction,Substance
1,disrupting interaction,"Neurexin-1-beta (Homo sapiens), P58400-1 S111R"
2,disrupting interaction,"Neurexin-1-beta (Homo sapiens), P58400-1 L240R"
3,disrupting interaction,"Neurexin-1-beta (Homo sapiens), P58400-1 D141S"
4,disrupting interaction,"Neurexin-1-beta (Homo sapiens), P58400-1 L139R"
